Measurements taken from US9175282B2, “Cellobiose 2-epimerase, its preparation and uses” (HAYASHIBARA CO., LTD., priority 2009, dated 2015).

Legend:
[1] = Thermostability and pH stability (residual activity); details: incubated at pH 6.0 for 60 minutes
Procedure: The thermostability was determined as the residual activity of the enzyme, after incubated at given temperatures for 60 minutes in 10 mM acetate buffer (pH 6.0) followed by being cooled in cold water.

[2] = Optimum temperature and optimum pH of epimerase activity; format: biochemical
Procedure: Through the specification of the present invention, the activity of the cellobiose 2-epimerase was determined as a lactose 2-epimerase activity, which catalyzes epimerization of lactose to form epilactose, using lactose as the substrate obtainable in highly purified form at low cost. The lactose 2-epimerase activity was measured as follows. To 1,000 μl of substrate solution, which contains lactose to give a final concentration of 35.1 mM and acetate buffer (pH 6.0) to give a final concentration of 20 mM of the reaction solution, 200 μl of a enzyme solution was added to give a 1,200 μl of the reaction solution, followed by reaction at 50° C. for 20 minutes. The reaction was stopped by heating for 10 minutes in a boiling water bath. Then reaction mixture was subjected to HPLC chromatography to determine the amount of epilactose produced by the reaction. The HPLC chromatography was conducted at the following conditions;
Using the purified cellobiose 2-epimerase preparation obtained by the method of Experiment 2, effects of temperature and pH on the epimerase activity were investigated according to the method of assaying the activity. The results were in FIG. 3 (optimum temperature) and FIG. 4 (optimum pH). The optimum temperature of the enzyme is 80° C. when reacted at pH 6.0 for 20 minutes. The optimum pH of the enzyme is 7.8 when reacted at 50° C. for 20 minutes.

B1: recombinant epimerase: cellobiose 2-epimerase expressed in E. coli transformant ETCS1 and purified by heat treatment and chromatography (protein, listed as Caldicellulosiruptor saccharolyticus)
chain: MDITRFKEDLKAHLEEKIIPFWQSLKDDEFGGYYGYMDFNLNIDRKAQKGCILNSRILWFFSACYNVLKSEKCKEMAFHAFEFLKNKFWDKEYEGLFWSVSHKGVPVDVTKHVYVQAFGIYGLSEYYEASGDEEALHMAKRLFEILETKCKRENGYTEQFERNWQEKENRFLSENGVIASKTMNTHLHVLESYTNLYRLLKLDDVYEALEWIVRLFVDKIYKKGTGHFKVFCDDNWNELIKAVSYGHDIEASWLLDQAAKYLKDEKLKEEVEKLALEVAQITLKEAFDGQSLINEMIEDRIDRSKIWWVEAETVVGFFNAYQKTKEEKYLDAAIKTWEFIKEHLVDRRKNSEWLWKVNEDLEAVNMPIVEQWKCPYHNGRMCLEIIKRVD
- Thermostability (stable up to) [1]: up to 70 °C
- Optimum pH ([2]; reacted at 50° C. for 20 minutes): about 7.8
- Optimum temperature ([2]; reacted at pH 6.0 for 20 minutes): about 80 °C
